In paper PMC7039703:

Assays:
[1] = molecular target: His-tagged FcγRIIB (human) (UniProt P31994); experiment: ELISA
His-tagged FcγRI (human) = His-tagged FcγRI (human) (UniProt P12314); experiment: ELISA
[2] = molecular target: His-tagged FcγRIIaR (human) (UniProt P12318); experiment: ELISA
FcγRIIIaV (human) = FcγRIIIaV (human) (UniProt P08637); experiment: BLI
UniProt P08637, sequence (P08637 17-208): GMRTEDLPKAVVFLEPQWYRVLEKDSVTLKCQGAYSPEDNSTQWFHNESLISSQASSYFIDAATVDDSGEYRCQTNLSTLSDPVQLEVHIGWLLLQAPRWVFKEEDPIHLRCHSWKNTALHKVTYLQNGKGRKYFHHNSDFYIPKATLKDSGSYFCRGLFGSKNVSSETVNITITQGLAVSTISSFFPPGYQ

UniProt P12318, sequence (P12318 34-217): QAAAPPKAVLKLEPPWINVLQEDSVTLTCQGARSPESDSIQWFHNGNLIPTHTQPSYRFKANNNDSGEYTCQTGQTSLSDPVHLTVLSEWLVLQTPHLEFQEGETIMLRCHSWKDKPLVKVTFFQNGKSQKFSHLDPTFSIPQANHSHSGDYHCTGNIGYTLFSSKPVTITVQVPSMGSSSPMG
UniProt P12314, sequence (P12314 16-292): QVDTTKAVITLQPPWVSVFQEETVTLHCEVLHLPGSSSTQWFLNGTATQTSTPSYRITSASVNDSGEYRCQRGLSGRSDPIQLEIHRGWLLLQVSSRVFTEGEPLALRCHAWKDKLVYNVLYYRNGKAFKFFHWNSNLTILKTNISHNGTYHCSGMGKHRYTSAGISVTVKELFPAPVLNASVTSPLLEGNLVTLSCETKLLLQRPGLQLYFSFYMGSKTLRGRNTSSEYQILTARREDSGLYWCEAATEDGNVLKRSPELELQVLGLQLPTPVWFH
UniProt P31994, sequence (P31994 43-217): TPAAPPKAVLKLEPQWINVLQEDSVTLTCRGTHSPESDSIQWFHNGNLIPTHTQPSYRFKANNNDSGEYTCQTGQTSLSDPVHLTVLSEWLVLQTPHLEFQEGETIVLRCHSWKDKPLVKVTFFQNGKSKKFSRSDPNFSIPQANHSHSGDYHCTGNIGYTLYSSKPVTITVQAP

Substance: monoclonal anti-CD20 antibody GA101 produced in 293SGlycoDelete cells
- fold reduction of binding competition against 293S anti-CD20 [1]: > 10 fold
- fold reduction of binding competition against 293S anti-CD20 (His-tagged FcγRI (human)): > 10 fold
- fold reduction of binding competition against 293S anti-CD20 [2]: > 10 fold
- fold lower binding affinity against 293S anti-CD20 (FcγRIIIaV (human)): 5.8 fold
